The numbers were not newly measured in PMC10092198, which cites them from elsewhere.

The target of the data set is C3b (mC3b) C3b (Mus musculus) (UniProt P01027).
UniProt P01027, sequence (P01027 566-669): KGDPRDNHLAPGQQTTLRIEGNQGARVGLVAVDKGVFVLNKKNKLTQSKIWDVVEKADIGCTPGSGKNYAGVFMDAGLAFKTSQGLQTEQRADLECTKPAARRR

The Kd is the constant that tells how readily two partners part at equilibrium. Factor H (mFH) (from UniProt P06909): the Kd is 1 µM.
